The assay concerns the target MogR, full-length (transcriptional repressor of flagellar motility genes) (Listeria monocytogenes).

Where only a bound is given, the exact number is not on record here.

Chain of MogR, full-length (transcriptional repressor of flagellar motility genes) (Listeria monocytogenes) (G2K449 whole entry): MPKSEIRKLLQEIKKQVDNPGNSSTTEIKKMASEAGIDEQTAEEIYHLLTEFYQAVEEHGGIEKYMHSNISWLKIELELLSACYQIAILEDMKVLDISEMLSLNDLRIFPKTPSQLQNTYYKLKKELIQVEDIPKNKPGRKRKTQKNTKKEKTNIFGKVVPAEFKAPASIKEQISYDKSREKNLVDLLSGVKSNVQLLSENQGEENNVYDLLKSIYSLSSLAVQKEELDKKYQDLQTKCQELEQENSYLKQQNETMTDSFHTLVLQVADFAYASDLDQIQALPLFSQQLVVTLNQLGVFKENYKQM

In the case of “GmaR, full-length (bifunctional flagellar anti-repressor/glycosyltransferase) (natural protein)”, the gel mobility shift at 37°C: amount of purified GmaR-His6 needed to decrease shifted MogR-His6:DNA complexes as at 30°C was above 2 fold.

For the origin of these results see paper PMC3150276.
